Measured values taken from article PMC6424596 (Current biology : CB, 2019).

Target: T1, Cdr2-flag (S. pombe, UniProt P87050 1-775)
T1 sequence (looked up): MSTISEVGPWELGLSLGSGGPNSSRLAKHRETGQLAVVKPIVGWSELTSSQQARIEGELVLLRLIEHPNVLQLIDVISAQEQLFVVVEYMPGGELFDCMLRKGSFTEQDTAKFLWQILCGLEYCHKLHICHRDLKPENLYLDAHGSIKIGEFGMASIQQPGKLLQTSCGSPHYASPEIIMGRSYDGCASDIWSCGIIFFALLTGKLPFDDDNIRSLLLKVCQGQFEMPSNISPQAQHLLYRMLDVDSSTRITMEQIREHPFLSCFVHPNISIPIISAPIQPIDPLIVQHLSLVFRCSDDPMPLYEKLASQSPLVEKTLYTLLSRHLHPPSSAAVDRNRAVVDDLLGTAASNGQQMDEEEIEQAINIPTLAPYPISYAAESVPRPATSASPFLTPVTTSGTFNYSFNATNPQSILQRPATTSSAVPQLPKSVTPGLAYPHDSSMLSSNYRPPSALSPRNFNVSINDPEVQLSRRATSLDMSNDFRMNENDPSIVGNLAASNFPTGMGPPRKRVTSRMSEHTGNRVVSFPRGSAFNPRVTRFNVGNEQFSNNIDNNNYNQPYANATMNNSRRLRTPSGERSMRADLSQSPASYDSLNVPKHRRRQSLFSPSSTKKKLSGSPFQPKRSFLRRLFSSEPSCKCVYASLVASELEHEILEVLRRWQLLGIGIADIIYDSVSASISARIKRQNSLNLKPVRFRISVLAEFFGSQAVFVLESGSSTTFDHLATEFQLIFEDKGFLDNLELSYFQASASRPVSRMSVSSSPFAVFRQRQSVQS
Assay: co-IP

- fold co-immunoprecipitated against Mid1-myc13: ~2 fold
B1: Mid1–9A-myc13 (natural protein, S. pombe, UniProt P78953 1-920, looked up)
chain: MKEQEFSYREAKDVSLDSKGLENSFLSSPNREKTPLFFEGNSNETSGYDQTKNFTHGDGDMSLGNLSELNVATDLLESLDLRSMYMHGYGHLDSSFSSQHSPDNRKRMSATSVFKRINSEEEGRIPALTYSAGTMNSTSSSTASLKGADIVADYETFNPDQNLAELSFDRSKSSRKRAVEVAEFSRAKTMSPLEYTVQHPYQSHNELSTNPARARAGAVPNLARIPADVKPVPPAHLSASSTVGPRILPSLPKDTTEDNPALERVETTASLDMDYKPLEPLAPIQEAPVEDTSEPFSSVPEATLDDSDISTESLRKKVLAKMEAKRISAGSSYASTLRKVYDFSELSLPTNGKDYDELYLQSSRNSEPEISTIINDSLQQENMDEDISATSIPKSQAAYGHGSVTYHEVPRYNLTSASVGYSISSQRGRIKASSTIDNLSAILSSEDLRHPAMQPVPGTKRTYANYCENEPNKSSQSLVSSESHNVEGWNYSETGTVGFYDPSAEISASIDELRQSTPVARDSELLSRAHAFDLNRLDLPSQDKSTSYEVPNGTENQSPRPVTSLGFVNETFFEEKPKAPLPLGRFYIHLNSILNISISEVHSPIKIIVNTPTQNMQLPWQAVNGNNRLDHDFAFHVDDNFKVSFMFLDIPIEDKSNGSKGVSATKDVSNGKPAETKSKARKFFDKLFNRRKKRKLNKAAAVENSKAKKSVVIKKVSGTATLNLGNVKDSCFGKAFNVEIPIISRGFLEAIPVKINSIGKRTLGNLTLTCLYIPELSVPEQELPFTLEQATMDLRHVRSNYLYNEGYLYRLEDSSIRRRFVVLRSKQLNFYAEKGGQYLDTFQLSKTVVSIPMVNFSEAVSNLGLVAGILATSVDRRHVQLFADSKKVCQKWLQVMNSRSFALDRGTEKLWLQEYVNFMA
